Measurements taken from patent US20080253962A1 (Bristol-Myers Squibb, published 2008).

T1: IRTA1, full length transmembrane form with N-terminal myc tag, expressed on transfected CHO cells (human, UniProt Q96PJ5 20-515)
T1 construct: Full length cDNA in CHO cells; also called human IRTA-1; not shown: myc tag at the N-terminus
T1 sequence: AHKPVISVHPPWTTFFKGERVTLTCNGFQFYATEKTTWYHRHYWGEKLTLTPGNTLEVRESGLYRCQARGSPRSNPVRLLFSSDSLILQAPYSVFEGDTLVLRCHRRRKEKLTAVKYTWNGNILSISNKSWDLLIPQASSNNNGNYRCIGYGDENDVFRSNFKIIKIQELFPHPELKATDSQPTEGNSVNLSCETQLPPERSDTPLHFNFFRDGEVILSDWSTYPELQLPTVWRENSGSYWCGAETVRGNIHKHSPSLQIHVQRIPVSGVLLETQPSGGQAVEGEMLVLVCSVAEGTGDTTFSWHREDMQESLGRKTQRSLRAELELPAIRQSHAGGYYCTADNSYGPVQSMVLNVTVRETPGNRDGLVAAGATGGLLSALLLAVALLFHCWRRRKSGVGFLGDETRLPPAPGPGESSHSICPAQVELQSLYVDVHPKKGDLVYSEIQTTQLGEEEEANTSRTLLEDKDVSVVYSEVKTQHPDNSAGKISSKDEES

T2: IRTA2, full length transmembrane form with N-terminal myc tag, expressed on transfected CHO cells (human, UniProt Q96RD9 16-977)
T2 construct: Full length cDNA in CHO cells; also called human IRTA-2; not shown: myc tag at the N-terminus
T2 chain: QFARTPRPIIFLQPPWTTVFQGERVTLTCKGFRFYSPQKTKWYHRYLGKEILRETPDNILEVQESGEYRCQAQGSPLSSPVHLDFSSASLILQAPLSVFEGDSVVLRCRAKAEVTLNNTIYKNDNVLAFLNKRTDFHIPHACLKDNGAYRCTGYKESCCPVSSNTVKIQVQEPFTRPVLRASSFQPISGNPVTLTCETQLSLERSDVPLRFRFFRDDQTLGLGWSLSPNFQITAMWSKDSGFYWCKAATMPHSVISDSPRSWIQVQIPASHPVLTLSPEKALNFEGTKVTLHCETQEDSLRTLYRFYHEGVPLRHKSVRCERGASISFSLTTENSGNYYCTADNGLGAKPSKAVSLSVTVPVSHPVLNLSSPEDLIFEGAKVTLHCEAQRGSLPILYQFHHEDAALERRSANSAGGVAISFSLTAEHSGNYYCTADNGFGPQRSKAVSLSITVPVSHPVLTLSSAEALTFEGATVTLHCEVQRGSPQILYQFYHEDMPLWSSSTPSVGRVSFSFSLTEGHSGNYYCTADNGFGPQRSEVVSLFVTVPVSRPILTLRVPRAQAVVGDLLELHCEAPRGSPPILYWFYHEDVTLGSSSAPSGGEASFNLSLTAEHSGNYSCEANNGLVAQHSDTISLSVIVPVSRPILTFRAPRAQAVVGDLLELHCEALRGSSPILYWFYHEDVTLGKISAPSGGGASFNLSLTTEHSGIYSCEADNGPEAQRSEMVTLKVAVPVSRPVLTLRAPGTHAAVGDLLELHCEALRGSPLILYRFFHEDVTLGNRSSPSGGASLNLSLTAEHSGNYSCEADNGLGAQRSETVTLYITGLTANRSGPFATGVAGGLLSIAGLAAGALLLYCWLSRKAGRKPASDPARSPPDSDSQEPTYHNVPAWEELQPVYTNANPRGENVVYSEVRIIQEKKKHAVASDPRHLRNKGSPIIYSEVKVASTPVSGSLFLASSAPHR

T3: IRTA3, full length transmembrane form with N-terminal myc tag, expressed on transfected CHO cells (human, UniProt Q96P31 18-734)
T3 construct: Full length cDNA in CHO cells; also called human IRTA-3; not shown: myc tag at the N-terminus
T3 sequence: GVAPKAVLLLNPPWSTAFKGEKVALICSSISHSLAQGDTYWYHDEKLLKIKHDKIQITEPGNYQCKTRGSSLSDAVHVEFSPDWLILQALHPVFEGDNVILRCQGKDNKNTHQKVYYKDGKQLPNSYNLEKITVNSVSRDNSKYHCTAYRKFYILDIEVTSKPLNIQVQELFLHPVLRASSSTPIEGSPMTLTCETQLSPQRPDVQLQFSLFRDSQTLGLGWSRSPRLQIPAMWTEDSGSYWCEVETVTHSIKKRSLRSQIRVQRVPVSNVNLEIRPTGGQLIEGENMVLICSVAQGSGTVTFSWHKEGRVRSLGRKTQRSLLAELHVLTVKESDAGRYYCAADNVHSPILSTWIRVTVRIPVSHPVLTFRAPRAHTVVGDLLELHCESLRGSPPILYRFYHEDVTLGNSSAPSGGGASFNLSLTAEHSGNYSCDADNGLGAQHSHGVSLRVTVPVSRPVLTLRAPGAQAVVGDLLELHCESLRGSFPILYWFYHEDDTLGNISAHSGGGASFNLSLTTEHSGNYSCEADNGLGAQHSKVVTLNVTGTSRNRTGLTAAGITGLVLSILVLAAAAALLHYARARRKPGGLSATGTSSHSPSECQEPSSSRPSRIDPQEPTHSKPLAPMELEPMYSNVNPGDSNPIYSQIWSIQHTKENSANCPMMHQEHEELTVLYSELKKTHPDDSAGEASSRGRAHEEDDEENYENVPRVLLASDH

T4: IRTA5, full length transmembrane form with N-terminal myc tag, expressed on transfected CHO cells (human, UniProt Q96LA6 17-429)
T4 construct: Full length cDNA in CHO cells; also called human IRTA-5; not shown: myc tag at the N-terminus
T4 sequence: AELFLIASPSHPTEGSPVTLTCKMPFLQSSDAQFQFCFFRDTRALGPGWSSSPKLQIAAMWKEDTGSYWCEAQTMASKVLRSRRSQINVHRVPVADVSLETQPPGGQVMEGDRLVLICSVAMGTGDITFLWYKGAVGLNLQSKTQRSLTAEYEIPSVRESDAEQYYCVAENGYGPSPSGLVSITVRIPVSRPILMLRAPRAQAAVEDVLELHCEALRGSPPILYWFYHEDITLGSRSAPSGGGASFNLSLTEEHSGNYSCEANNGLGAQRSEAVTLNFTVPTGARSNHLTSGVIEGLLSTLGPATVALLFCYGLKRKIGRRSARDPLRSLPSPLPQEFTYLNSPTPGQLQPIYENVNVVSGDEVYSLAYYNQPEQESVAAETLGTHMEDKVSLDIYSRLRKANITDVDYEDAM

T5: IRTA4-C9 antigen (fusion protein composed of the extracellular domain of the IRTA4 linked to the carboxy … (human, UniProt P02699 340-348 (bovine entry)))
T5 construct: domain: carboxy terminal nine amino acids
T5 sequence: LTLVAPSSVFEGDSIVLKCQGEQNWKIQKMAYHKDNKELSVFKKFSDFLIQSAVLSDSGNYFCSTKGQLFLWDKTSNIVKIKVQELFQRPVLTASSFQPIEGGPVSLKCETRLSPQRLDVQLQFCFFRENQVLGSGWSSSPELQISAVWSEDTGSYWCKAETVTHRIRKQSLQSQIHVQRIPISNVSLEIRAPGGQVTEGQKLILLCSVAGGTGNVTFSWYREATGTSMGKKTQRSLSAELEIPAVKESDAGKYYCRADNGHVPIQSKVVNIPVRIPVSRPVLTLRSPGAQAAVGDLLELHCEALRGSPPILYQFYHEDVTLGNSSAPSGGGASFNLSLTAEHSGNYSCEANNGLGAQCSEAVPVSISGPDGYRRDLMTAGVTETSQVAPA

T6: IRTA4, full length transmembrane form with N-terminal myc tag, expressed on transfected CHO cells (human, UniProt Q96LA5 20-508)
T6 construct: Full length cDNA in CHO cells; also called human IRTA-4; CHO line transfected with IRTA4; not shown: myc tag at the N-terminus
T6 sequence: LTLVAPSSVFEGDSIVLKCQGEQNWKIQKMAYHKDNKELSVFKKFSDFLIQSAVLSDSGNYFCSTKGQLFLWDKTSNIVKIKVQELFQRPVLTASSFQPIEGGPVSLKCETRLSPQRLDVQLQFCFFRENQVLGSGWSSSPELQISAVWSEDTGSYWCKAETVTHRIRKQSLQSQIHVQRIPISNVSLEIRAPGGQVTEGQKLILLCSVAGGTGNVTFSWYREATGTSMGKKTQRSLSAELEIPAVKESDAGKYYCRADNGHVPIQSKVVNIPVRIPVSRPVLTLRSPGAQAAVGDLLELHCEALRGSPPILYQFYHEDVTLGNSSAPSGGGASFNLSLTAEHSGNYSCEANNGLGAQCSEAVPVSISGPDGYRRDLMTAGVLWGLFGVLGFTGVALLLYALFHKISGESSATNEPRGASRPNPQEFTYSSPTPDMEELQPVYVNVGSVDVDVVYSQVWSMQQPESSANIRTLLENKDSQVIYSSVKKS


How the values were obtained:
[1] = molecular target: T1, IRTA1, full length transmembrane form …; experiment: flow cytometry on transfected CHO cells, GMFI
Source text: (§1) Chinese hamster ovary (CHO) cell lines that express one of each of the five IRTA proteins at the cell surface were developed and used to determine the specificity of the IRTA4 monoclonal antibodies by flow cytometry. CHO cells were transfected with expression plasmids containing full length cDNA encoding transmembrane forms of IRTA1, IRTA2, IRTA3, IRTA4, or IRTA5. In addition, the transfected proteins contained a myc tag at the N-terminus for detection by anti-myc antibody. Binding of the two anti-IRTA4 monoclonal antibodies was assessed by incubating the transfected cells with each of the IRTA4 Abs at a concentration of 10 μg/ml. The cells were washed and binding was detected with a FITC-labeled anti-human IgG Ab. A murine anti-myc Ab followed by labeled anti-murine IgG was used as the positive control. Secondary antibody alone was used as a negative control. The results are depicted in FIG. 7. The IRTA4 monoclonal antibodies 9G11 and 13B1 bound to the CHO line transfected with IRTA4 but not to CHO lines expressing IRTA1, 2, 3 or 5 as measured by the mean fluorescent intensity (MFI) of staining.

[2] = molecular target: T2, IRTA2, full length transmembrane form …; experiment: flow cytometry on transfected CHO cells, GMFI
Source text: as §1

[3] = molecular target: T3, IRTA3, full length transmembrane form …; experiment: flow cytometry on transfected CHO cells, GMFI
Source text: as §1

[4] = molecular target: T4, IRTA5, full length transmembrane form …; experiment: flow cytometry on transfected CHO cells, GMFI
Source text: as §1

[5] = molecular target: T5, IRTA4-C9 antigen (fusion protein …); experiment: Biacore SPR, antibody captured by anti-human IgG on CM5 chip, IRTA4-C9 flowed at 50-400 nM, 1:1 Langmuir fit
Description: Anti-IRTA4 antibodies were characterized for affinities and binding kinetics by Biacore analysis (Biacore AB, Uppsala, Sweden). Purified anti-IRTA4 monoclonal antibodies were captured by anti-human IgG antibody covalently linked to a CM5 chip (carboxy methyl dextran coated chip) via primary amines, using standard amine coupling chemistry and kit provided by Biacore. Binding was measured by flowing the IRTA4-C9 antigen (a fusion protein composed of the extracellular domain of the IRTA4 linked to the carboxy terminal nine amino acids of rhodopsin) in HBS EP buffer (provided by Biacore AB) at concentrations of 400, 300, 200, 100, and 50 nM at a flow rate of 20 μl/min. The antigen-antibody association kinetics was followed for 10 minutes and the dissociation kinetics was followed for 10 minutes. The association and dissociation curves were fit to a 1:1 Langmuir binding model using BIAevaluation software (Biacore AB).

[6] = molecular target: T6, IRTA4, full length transmembrane form …; experiment: flow cytometry on IRTA4-transfected CHO cells, antibody at 10 µg/ml, FITC anti-human IgG detection, GMFI
Source text: as §1

| Binder | binding result [1] | binding result [2] | binding result [3] | binding result [4] | Kd [5] [nM] | koff [5] [s⁻¹] | kon [5] [M⁻¹ s⁻¹] | binding result [6] |
| --- | --- | --- | --- | --- | --- | --- | --- | --- |
| 13B1 human monoclonal antibody (antibody, V domains shown, Hybridoma-derived fully human IgG with kappa light chain from KM mice; also called anti-IRTA4 HuMAb 13B1) VH: QVQLVQSGAEVKKPGASVKVSCKASGYNFNSYDISWVRQAAGQGLEWMGWMNPNSGYTSYAQKFQGRVTMTWNTSISTAYMELSSLRSEDSAVYYCAREGIVGAIGWFDPWGQGTLVTVSS VL: DIQMTQSPSSVSASVGDRVTITCRASQGISSWLAWYQHKPGKAPKLLIYAASSLQSGVPSRFSGSGSGTDFTLTISSLQPEDFATYYCQQANSFPLTFGGGTKVEIK | no binding (tested: 10 µg/ml) | no binding (tested: 10 µg/ml) | no binding (tested: 10 µg/ml) | no binding (tested: 10 µg/ml) | 3.48 | 0.000426 | 125000 | binds |
| 9G11 human monoclonal antibody (antibody, V domains shown, Hybridoma-derived fully human IgG with kappa light chain from KM mice; also called anti-IRTA4 HuMAb 9G11) VH: QVQLVQSGAEVKKPGASVKVSCKASGYTFTSYAMHWVRQAPGQRLEWMGWINVGNGNTRYSQKFQGRVTITRDTSASTAYMELSSLRSEDTAVYYCAREGSNGWHEDFDYWGQGTLVTVSS VL: EIVLTQSPATLSLSPGERATLSCRASQSVSSYLAWYQQKPGQAPRLLIYDASNRATGIPARFSGSGSGTDFTLTISSLEPEDFAVYYCQQRSDWPPSLTFGGGTKVEIK | no binding (tested: 10 µg/ml) | no binding (tested: 10 µg/ml) | no binding (tested: 10 µg/ml) | no binding (tested: 10 µg/ml) | 2.8 | 7.4e-05 | 26300 | binds |
